Laboratory results reported in US20200393470A1 (Regeneron, published 2020).

T1: human ANGPTL8 (human, UniProt Q6UXH0 22-198)
T1 construct: also called hANGPTL8; Angiopoietin-like protein 8
T1 sequence: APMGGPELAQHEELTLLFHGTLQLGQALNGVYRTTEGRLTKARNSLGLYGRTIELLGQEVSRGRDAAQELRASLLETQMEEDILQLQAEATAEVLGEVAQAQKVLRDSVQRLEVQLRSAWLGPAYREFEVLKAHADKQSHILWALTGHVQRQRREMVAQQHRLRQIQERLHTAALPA

T2: human ANGPTL8 dimer protein with mouse Fc tag (human, UniProt Q6UXH0 22-198)
T2 construct: also called hANGPTL8.mFc; dimer form of human ANGPTL8; not shown: mouse Fc tag
T2 sequence: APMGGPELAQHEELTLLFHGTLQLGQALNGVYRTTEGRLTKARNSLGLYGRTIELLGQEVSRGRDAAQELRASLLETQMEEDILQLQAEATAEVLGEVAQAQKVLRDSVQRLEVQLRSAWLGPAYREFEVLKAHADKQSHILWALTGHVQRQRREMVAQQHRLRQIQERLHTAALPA


What was measured:
human ANGPTL8 [1] = molecular target: T1, human ANGPTL8; test: immunoprecipitation from cell conditioned media, Western blot
Procedure: The selection process involved performing a series of immunoprecipitations (IPs), in which each mAb was incubated with cell conditioned media (CM) containing the human ANGPTL8 protein. A resin that identifies human IgG4 was then applied to the mAb/CM mixtures. The resin beads targeted the mAbs, binding the mAb-human ANGPTL8 complex. A series of Western blots probing for human ANGPTL8 were run on the various fractions of the IPs, and anti-human ANGPTL8 mAbs were selected based on high human ANGPTL8 expression in the IP fractions, with low human ANGPTL8 expression in the unbound fractions.

[2] = molecular target: T2, human ANGPTL8 dimer protein with mouse …; test: sandwich ELISA, biotinylated detection mAb, dimer (mFc) standard
Procedure: (§1) Proteins and mAbs stored at −80° C. were thawed and kept on ice, as they were needed. The wells of the ELISA plate were coated with capture mAb, at a concentration of 4 μg/mL in PBS, and a volume of 100 μL/well. The plate was covered with a plate sealer, and stored at 4° C. overnight (approximately 18 hours). The wells of the plate were then washed with 350 μL/well wash buffer (0.1% Tween-20 in PBS), for a total of 3 washes, using an automated plate washer. Excess wash remnants were removed by inverting and tapping the plate against clean paper towels. Blocking buffer (1% Fraction V BSA in PBS) was added at 300 μL/well. The plate was covered with a plate sealer, and placed on a plate shaker at room temperature, shaking at 300 rpm for a minimum of 1 hour.
(§2) After the blocking period, the wells of the ELISA plate were washed again, and excess wash remnants were removed, as previously described. The standards and the diluted samples were added to the plate in duplicate, with 100 μL/well. The plate was covered with a plate sealer and placed on a plate shaker at room temperature, shaking at 500 rpm for 2 hours. The wells of the ELISA plate were washed again, and excess wash remnants were removed, as previously described. The detection mAb was added at a concentration of 400 ng/mL in assay diluent (1% Fraction V BSA/0.1% Tween-20 in PBS), with 150 μL/well. […]

human ANGPTL8 [3] = molecular target: T1, human ANGPTL8; test: sandwich ELISA on ex vivo serum samples
Procedure: as §1, §2

[4] = molecular target: T2, human ANGPTL8 dimer protein with mouse …; test: sandwich ELISA, capture mAb, dimer (mFc) standard
Procedure: as §1, §2

| Binder | binding result (human ANGPTL8 [1]) | binding result [2] | binding result (human ANGPTL8 [3]) | binding result [4] |
| --- | --- | --- | --- | --- |
| H4H15341P (antibody, human IgG4, V domains shown, also called biotinylated-H4H15341P) VH: EVQLVESGGGLVQPGGSLRLSCAASGFTFNNHEMNWVRQAPGKGLEWVSYISSSGNTVTYADFLKGRFTISRDNAKNSLFLQMNSLRDEDTAVYYCARDHLSGTSPLSYWGQGTLVTVSS VL: DIQMTQSPSSLSASVGDRVTITCQASQDINNYLNWFQQKPGKAPKLLIFDASNLETGVPSRFSGSGSGTDFTFTISSLQPEDIATYFCQQYENLPYTFGQGTKLEIK | binds |  |  |  |
| H4H15318P (antibody, V domains shown, Used unlabelled in the immunoprecipitation and as capture mAb, and biotinylated as detection mAb in the sandwich ELISA; also called biotin-H4H15318P; biotinylated anti-human C19orf80 (ANGPTL8) (biotin-H4H15318P)) VH: QVQLVESGGGVVQPGRSLRLSCTASGFTFGNFGIHWVRQAPGKGLEWVAVISYDGTDKFYADPVKGRFIISRDNSMNILYLQMNSLRAEDTAVYYCAKDGEMELRGYYYYYGMDVWGQGTTVTVSS VL: DIQMTQSPSSVSASVGDRVTITCRASQGINTWLAWYQQKPGTAPKLLIFAASSLESGVPSRFSGSGFGTDFTLTISSLQSEDLATYFCQQVHSPPYTFGQGTKLEIK | binds | binds |  |  |

Next, values leading:

| binding result (human ANGPTL8 [1]) | binding result [2] | binding result (human ANGPTL8 [3]) | binding result [4] | Binder |
| --- | --- | --- | --- | --- |
|  |  | binds | binds | H4H15361P2 (antibody, human IgG4, V domains shown, also called anti-human C19orf80 (ANGPTL8) (H4H15361P2); biotinylated-H4H15361P2) VH: EVQLVESGGGLVQPGRSLRLSCTASGFSFGDNAMGWVRQAPGKGLEWVSFIRRKASGGTTEYAASVKGRFTISRDDSKSIAYLQMNSLKTEDTGVYYCTRGGAVYGYWGQGTLVTVSS VL: not shown |
|  |  | binds | binds | H4H15347P (antibody, human IgG4, V domains shown, Capture mAb of the final ELISA; also called anti-human C19orf80 (ANGPTL8) (H4H15347P); biotinylated-H4H15347P) VH: EVQLVESGGGLVQPGGSLRLSCAASGFTFRNYAMNWARQAPGKGLEWVSGITGSGGATYYADSVKGRFTISRENSKNTLFLQMDTLRAEDTAVYYCAKDRRYFPTSGGPQWGQGTLVTVSS VL: DIVMTQSPLSLPVTPGEPASISCRSSRSLLHSSGYNYLDWYLQKPGQSPQLLLYLGSNRASGVPDRFSGSGSGTYFTLKISRVDAEDVGVYYCMQALQTPWTFGQGTKVEIK |
